US20220000762A1, “COMPOSITIONS FOR TREATING OXIDATIVE STRESS-ASSOCIATED SKIN DISEASES AND SKIN AGEING AND DIAGNOSIS OF OXIDATIVE STRESS-ASSOCIATED SKIN DISEASES” (priority 2019, published 2022)

Tests used:
Phenantroline assay = type: biochemical; conditions: 10 μg or 20 μg RoxP
Method: Phenantroline chelates specifically Fe^2+ and generates absorbance at 550 nm.
A reaction mixture containing 0.7 mM ammonium iron (II) sulfate hexahydrate (from 1.4 mM working solution in PBS) or 0.5 mM ammonium iron (III) sulfate dodecahydrate (from 1.0 mM working solution in PBS); and further containing 10 μg or 20 μg RoxP (from 2 mg/ml RoxP working solution in PBS) or equivalent volume of PBS as control; and further containing 0.75 mM phenatroline (from 5 mM working solution in PBS); total volume 200 μl; was incubated for 15 minutes at room temperature. Absorbance was read at 550 nm.

THP-1 cells = test: MTT viability assay, paraquat oxidative stress, monocytes; type: cell-based, human
Method: Human keratinocytes (HaCat cells; disclosed in Boukamp et al. 1988 J Cell Biol 106:761-71 and available from Deutsches Krebsforschungszentrum, DKFZ, info@cell-lines-service.de; and also commercially available for example from Addexbio, San Diego, Calif., catalogue number T0020001) were grown in SFM medium supplemented with L-glutamine, EGF (epidermal growth factor) and bovine pituitary extract (Gibson, Invitrogen) until 90% confluency in 96-well plates (Nunc A/S, Roskilde, Denmark). Human monocytes (THP-1 cells; disclosed in Tsuchiya et al. 1980 Int J Cancer 26:171-6; commercially available for example from Sigma-Aldrich, catalogue number 88081201; kindly provided by Dr Arne Egesten, Lund University) were cultured in RPMI 1640 medium supplemented with Glutamax-1 (Gibco®, ThermoFisher Scientific), 100 μg/ml streptomycin, 100 μg/ml penicillin, and 10% v/v foetal calf serum (ThermoFisher Scientific). All cells were grown at 37° C. in 5% CO2 and 95% humidity.
HaCat cells cultured to 90% confluency, or THP-1 cells (1.2×10^6 cells/well) in a 96-well plate were treated with 2 mM paraquat (Sigma-Aldrich) and/or 5 μM RoxP for 24-48 h. […] Viability was measured by the addition of 0.5 mg/ml 3-(4,5-demethylthiazol-2-yl)-2,5-diphenyltetrazolium bromide (MTT) for 1-5 hours. […] The samples incubated for 30 minutes and absorbance at 550 nm was measured using a Wallac 1420 Multilabel Counter ([…]). […]

B1: RoxP: radical oxygenase of Propionibacterium acnes, secreted antioxidant protein of C. acnes; SEQ ID NO: 1 for strain KPA171202 (protein)
chain: MFVQIAASLAAASSIALGIPGAATPIDESQLPVGPQVSVTDSAQHTGPFAASSPLTITVKPGAPCVRADGYQESMVTRVLDDKGHQVWTGTFDESKLIGGTGLGTATFHVGSPAAAFNFHGSERTTYRTLSYCAYPHYVNGTRERLSQVSVKTFMVDPALN
modifications: Cutibacterium acnes
reduction of Fe^3+ to Fe^2+ (absorbance at 550 nm) (Phenantroline assay; 0.5 mM ammonium iron (III) sulfate, 15 minutes): reduced Fe^3+ to Fe^2+ | effect on reaction when only Fe^2+ was present (Phenantroline assay; 0.7 mM ammonium iron (II) sulfate): did not affect | effect on negative oxidative effect of paraquat (cell viability) (THP-1 cells; 2 mM paraquat, 5 μM RoxP (1:400 RoxP:oxidizer), 48 h, effect more prominent than in keratinocytes): completely inhibited | overall viability in the absence of an added oxidizer (THP-1 cells; no paraquat): increase the overall viability
